*1 amine or outer side, *2 acyl side, *3 side chain or, on linkers, in order; H or OH if unused. Where a SMILES comes first, the peptide text is derived from it. The star is where a group is joined. pNA = O=[N+]([O-])c1ccc(N*)cc1; Suc = O=C(CCC(=O)[*:2])[*:1]
How the values were obtained:
[1] = target: T1, B. amyloliquefaciens subtilisin, wild type (WT, Gly166) (Bacillus amyloliquefaciens, UniProt P00782); test: Kinetics of hydrolysis of succinyl-Ala-Ala-Pro-X-p-nitroanilide substrates (progress curve analysis); format: biochemical
T1 construct: at various amino acid residues within the mature form of the subtilisin molecule; made in house; host or cells: Bacillus subtilis (secreted, culture supernatant)
T1 sequence (P00782 108-382): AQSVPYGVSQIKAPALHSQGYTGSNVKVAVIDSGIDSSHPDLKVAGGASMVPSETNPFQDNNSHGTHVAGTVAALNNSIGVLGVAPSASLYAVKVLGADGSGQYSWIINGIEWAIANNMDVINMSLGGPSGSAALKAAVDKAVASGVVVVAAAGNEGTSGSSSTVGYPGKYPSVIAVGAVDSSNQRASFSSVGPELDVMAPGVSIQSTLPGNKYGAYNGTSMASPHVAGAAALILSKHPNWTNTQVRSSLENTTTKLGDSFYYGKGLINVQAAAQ
Excerpt: A change in substrate specificity is defined as a difference between the kcat/Km ratio of the precursor carbonyl hydrolase and that of the hydrolase mutant. The kcat/Km ratio is a measure of catalytic efficienty. Carbonyl hydrolase mutants with increased or diminished kcat/Km ratios are described in the examples. Generally, the objective will be to secure a mutant having a greater (numerically large) kcat/Km ratio for a given substrate, thereby enabling the use of the enzyme to more efficiently act on a target substrate. A substantial change in kcat/Km ratio is preferably at least 2-fold increase or decrease. However, smaller increases or decreases in the ratio (e.g., at least 1.5-fold) are also considered substantial. An increase in kcat/Km ratio for one substrate may be accompanied by a reduction in kcat/Km ratio for another substrate. […] Km and kcat are measured in accord with known procedures, as described in EPO Publication No. 0130756 or as described herein.
(§1) Wild-type subtilisin was purified from B. subtilis culture supernatants expressing the B. amyloliquefaciens subtilisin gene (Wells, J.A., et al. (1983) Nucleic Acids Res. 11, 7911-7925) as previously described (Estell, D.A., et al. (1985) J. Biol. Chem. 260, 6518-6521). Details of the synthesis of tetrapeptide substrates having the form succinyl-L-AlaL-AlaL-ProL-[X]-p-nitroanilide (where X is the P1 amino acid) are described by DelMar, E.G., et al. (1979) Anal. Biochem. 99, 316-320. Kinetic parameters, Km(M) and kcat-(s-^1) were measured using a modified progress curve analysis (Estell, D.A., et al. (1985) J. Biol. Chem. 260, 6518-6521). Briefly, plots of rate versus product concentration were fit to the differential form of the rate equation using a non-linear regression algorithm. Errors in kcat and Km for all values reported are less than five percent. The various substrates in Table VIII are ranged in order of decreasing hydrophobicity. Nozaki, Y. (1971), J. Biol. Chem. 246, 2211-2217; Tanford C. (1978) Science 200, 1012).

[2] = target: T2, B. amyloliquefaciens subtilisin deletion mutant S153/S156/A158/G159/S160/Δ161-164/I165/S166/A169/R170 (Bacillus amyloliquefaciens, UniProt P00782, A260S/DEL268-271/E263S/G267S/G273S/G276A/K277R/S266G/T265A/V272I); test: Kinetics of p-nitroanilide substrate hydrolysis, deletion mutant; format: biochemical; details: Table V; substrate not given; method b166 gives kcat in s-1
T2 construct: made in house
T2 sequence (P00782 with tags, fused parts or gaps A260S/E263S/DEL265-265/S266A/S269I/DEL271-273/G276A/K277R): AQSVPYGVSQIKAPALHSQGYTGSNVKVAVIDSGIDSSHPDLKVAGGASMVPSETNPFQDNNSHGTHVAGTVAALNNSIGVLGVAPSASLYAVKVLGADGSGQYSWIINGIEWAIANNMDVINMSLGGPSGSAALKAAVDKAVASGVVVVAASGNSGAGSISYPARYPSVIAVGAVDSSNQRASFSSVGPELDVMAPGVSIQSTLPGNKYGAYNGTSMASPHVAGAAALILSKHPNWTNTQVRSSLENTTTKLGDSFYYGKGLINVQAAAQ
Excerpt: The effect of deletion of residues 161 through 164 has been shown by comparing the activity of the wild type (WT) enzyme with a mutant enzyme containing this deletion as well as multiple substitutions (i.e., S153/S156/A158/G159/S160/0161-164/1165/S166/A169/R170). This produced the following results:
as §1

[3] = target: T3, B. amyloliquefaciens subtilisin variant L217 (Tyr217 to Leu) (Bacillus amyloliquefaciens, UniProt P00782, Y324L); test: Kinetics of p-nitroanilide substrate hydrolysis, L217; format: biochemical; details: substrate sAAPFpNa
T3 construct: made in house
T3 sequence (P00782 108-382 Y324L): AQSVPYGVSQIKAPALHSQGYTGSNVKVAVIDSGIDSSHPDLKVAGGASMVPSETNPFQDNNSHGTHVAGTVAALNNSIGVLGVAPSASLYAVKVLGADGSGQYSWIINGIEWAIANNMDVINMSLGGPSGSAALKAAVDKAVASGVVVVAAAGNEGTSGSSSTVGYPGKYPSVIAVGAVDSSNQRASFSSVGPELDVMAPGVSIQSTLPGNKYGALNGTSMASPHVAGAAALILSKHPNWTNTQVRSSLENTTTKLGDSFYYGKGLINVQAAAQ
Excerpt: as §1
Tyr217 has been substituted by all other 19 amino acids. Cassette mutagenesis as described in EPO publication No. 0130756 was used according to the protocol of Figure 22. The EcoRV restriction site was used for restriction-purification of pA217.
Since this position is involved in substrate binding, mutations here effect kinetic parameters of the enzyme. […]

[4] = substrate: CSCC[C@H](NC(=O)[C@@H]1CCCN1C(=O)[C@H](C)NC(=O)[C@H](C)NC(=O)CCC(=O)O)C(=O)Nc1ccc([N+](=O)[O-])cc1; test: Kinetics of p-nitroanilide substrate hydrolysis, E166; format: biochemical, B. amyloliquefaciens; details: other: Table XIV, 156 Glu / 166 Glu; value in parentheses; synthetic substrate with label as P-1 amino acid
Excerpt: as §1
(§2) The construction of subtilisin mutants containing the substitution of the ionic amino acids Asp, Asn, Gln, Lys and Ang are disclosed in EPO Publication No. 0130756. The present example describes the construction of the mutant subtilisin containing Glu at position 166 (E166) and presents substrate specificity data on these mutants. Further data on position 166 and 156 single and double mutants is presented infra.
(§3) pΔ166, described in Example 3, was digested with Sacl and Xmal. The double strand DNA cassette (underlined and overlined) of line 4 in Figure 13 contained the triplet GAA for the codon 166 to encode the replacement of Glu for Gly166. This mutant plasmid designated […] was propagated in BG2036 as described. This mutant subtilisin, together with the other mutants containing ionic substituent amino acids at residue 166, were isolated as described and further analyzed for variations in substrate specificity.
(§4) Each of these mutants was analyzed with the tetrapeptide substrates, succinyl-L-AlaL-AlaProL-X-p-nitroanilide, where X was Phe, Ala and Glu.

[5] = substrate: C[C@H](NC(=O)CCC(=O)O)C(=O)N[C@@H](C)C(=O)N1CCC[C@H]1C(=O)N[C@@H](CCC(N)=O)C(=O)Nc1ccc([N+](=O)[O-])cc1; test: as above; format: biochemical, B. amyloliquefaciens; details: other: Table XIV, 156 Glu / 166 Glu; value in parentheses; synthetic substrate with label as P-1 amino acid
Excerpt: as §1, §2, §3, §4

[6] = substrate: C[C@H](NC(=O)CCC(=O)O)C(=O)N[C@@H](C)C(=O)N1CCC[C@H]1C(=O)N[C@@H](CCCCN)C(=O)Nc1ccc([N+](=O)[O-])cc1; test: as above; format: biochemical, B. amyloliquefaciens; details: other: Table XIV, 156 Glu / 166 Glu; value in parentheses; synthetic substrate with label as P-1 amino acid
Excerpt: as §1, §2, §3, §4

[7] = substrate: CSCC[C@H](NC(=O)[C@@H]1CCCN1C(=O)[C@H](C)NC(=O)[C@H](C)NC(=O)CCC(=O)O)C(=O)Nc1ccc([N+](=O)[O-])cc1; test: Kinetics of p-nitroanilide substrate hydrolysis, Q166; format: biochemical, B. amyloliquefaciens; details: other: Table XIV, 156 Glu / 166 Gln; value in parentheses; synthetic substrate with label as P-1 amino acid
Excerpt: as §1, §2, §4

[8] = substrate: C[C@H](NC(=O)CCC(=O)O)C(=O)N[C@@H](C)C(=O)N1CCC[C@H]1C(=O)N[C@@H](CCC(=O)O)C(=O)Nc1ccc([N+](=O)[O-])cc1; test: as above; format: biochemical, B. amyloliquefaciens; details: other: Table XIV, 156 Glu / 166 Gln; value in parentheses; synthetic substrate with label as P-1 amino acid
Excerpt: as §1, §2, §4

[9] = substrate: C[C@H](NC(=O)CCC(=O)O)C(=O)N[C@@H](C)C(=O)N1CCC[C@H]1C(=O)N[C@@H](CCC(N)=O)C(=O)Nc1ccc([N+](=O)[O-])cc1; test: as above; format: biochemical, B. amyloliquefaciens; details: other: Table XIV, 156 Glu / 166 Gln; value in parentheses; synthetic substrate with label as P-1 amino acid
Excerpt: as §1, §2, §4

[10] = substrate: C[C@H](NC(=O)CCC(=O)O)C(=O)N[C@@H](C)C(=O)N1CCC[C@H]1C(=O)N[C@@H](CCCCN)C(=O)Nc1ccc([N+](=O)[O-])cc1; test: as above; format: biochemical, B. amyloliquefaciens; details: other: Table XIV, 156 Glu / 166 Gln; value in parentheses; synthetic substrate with label as P-1 amino acid
Excerpt: as §1, §2, §4

[11] = substrate: CSCC[C@H](NC(=O)[C@@H]1CCCN1C(=O)[C@H](C)NC(=O)[C@H](C)NC(=O)CCC(=O)O)C(=O)Nc1ccc([N+](=O)[O-])cc1; test: Kinetics of p-nitroanilide substrate hydrolysis, N166; format: biochemical, B. amyloliquefaciens; details: other: Table XIV, 156 Glu / 166 Asn; value in parentheses; synthetic substrate with label as P-1 amino acid
Excerpt: as §1, §2, §4

[12] = substrate: C[C@H](NC(=O)CCC(=O)O)C(=O)N[C@@H](C)C(=O)N1CCC[C@H]1C(=O)N[C@@H](CCC(=O)O)C(=O)Nc1ccc([N+](=O)[O-])cc1; test: as above; format: biochemical, B. amyloliquefaciens; details: other: Table XIV, 156 Glu / 166 Asn; value in parentheses; synthetic substrate with label as P-1 amino acid
Excerpt: as §1, §2, §4

[13] = substrate: C[C@H](NC(=O)CCC(=O)O)C(=O)N[C@@H](C)C(=O)N1CCC[C@H]1C(=O)N[C@@H](CCC(N)=O)C(=O)Nc1ccc([N+](=O)[O-])cc1; test: as above; format: biochemical, B. amyloliquefaciens; details: other: Table XIV, 156 Glu / 166 Asn; value in parentheses; synthetic substrate with label as P-1 amino acid
Excerpt: as §1, §2, §4

[14] = substrate: C[C@H](NC(=O)CCC(=O)O)C(=O)N[C@@H](C)C(=O)N1CCC[C@H]1C(=O)N[C@@H](CCCCN)C(=O)Nc1ccc([N+](=O)[O-])cc1; test: as above; format: biochemical, B. amyloliquefaciens; details: other: Table XIV, 156 Glu / 166 Asn; value in parentheses; synthetic substrate with label as P-1 amino acid
Excerpt: as §1, §2, §4

C[C@H](NC(=O)CCC(=O)O)C(=O)N[C@@H](C)C(=O)N1CCC[C@H]1C(=O)N[C@@H](Cc1ccccc1)C(=O)Nc1ccc([N+](=O)[O-])cc1 [sAAPFpNa, succinyl-L-AlaL-AlaL-ProL-Phep-nitroanilide, reference compound] (Suc-AAPF-pNA)
kcat ([1]; Table V, substrate not given, method b166 gives kcat in s-1): 50
kcat ([1]; Table XIX, WT): 50 s-^1
kcat [2]: 8
kcat [3]: 277 5'

B1: B. amyloliquefaciens subtilisin variant E166 (Gly166 to Glu) (Bacillus amyloliquefaciens; G273E) (protein)
chain: AQSVPYGVSQIKAPALHSQGYTGSNVKVAVIDSGIDSSHPDLKVAGGASMVPSETNPFQDNNSHGTHVAGTVAALNNSIGVLGVAPSASLYAVKVLGADGSGQYSWIINGIEWAIANNMDVINMSLGGPSGSAALKAAVDKAVASGVVVVAAAGNEGTSGSSSTVEYPGKYPSVIAVGAVDSSNQRASFSSVGPELDVMAPGVSIQSTLPGNKYGAYNGTSMASPHVAGAAALILSKHPNWTNTQVRSSLENTTTKLGDSFYYGKGLINVQAAAQ
notes: at various amino acid residues within the mature form of the subtilisin molecule; made in house; host or cells: Bacillus subtilis BG2036
Km [4]: 525 µM
Km [5]: 1230 µM
Km [6]: 204 µM

B2: B. amyloliquefaciens subtilisin variant Q166 (Gly166 to Gln) (Bacillus amyloliquefaciens; G273Q) (protein)
chain: AQSVPYGVSQIKAPALHSQGYTGSNVKVAVIDSGIDSSHPDLKVAGGASMVPSETNPFQDNNSHGTHVAGTVAALNNSIGVLGVAPSASLYAVKVLGADGSGQYSWIINGIEWAIANNMDVINMSLGGPSGSAALKAAVDKAVASGVVVVAAAGNEGTSGSSSTVQYPGKYPSVIAVGAVDSSNQRASFSSVGPELDVMAPGVSIQSTLPGNKYGAYNGTSMASPHVAGAAALILSKHPNWTNTQVRSSLENTTTKLGDSFYYGKGLINVQAAAQ
notes: as for B1
Km [7]: 43.7 µM
Km [8]: 7590 µM
Km [9]: 229 µM
Km [10]: 708 µM

B3: B. amyloliquefaciens subtilisin variant N166 (Gly166 to Asn) (Bacillus amyloliquefaciens; G273N) (protein)
chain: AQSVPYGVSQIKAPALHSQGYTGSNVKVAVIDSGIDSSHPDLKVAGGASMVPSETNPFQDNNSHGTHVAGTVAALNNSIGVLGVAPSASLYAVKVLGADGSGQYSWIINGIEWAIANNMDVINMSLGGPSGSAALKAAVDKAVASGVVVVAAAGNEGTSGSSSTVNYPGKYPSVIAVGAVDSSNQRASFSSVGPELDVMAPGVSIQSTLPGNKYGAYNGTSMASPHVAGAAALILSKHPNWTNTQVRSSLENTTTKLGDSFYYGKGLINVQAAAQ
notes: as for B1
Km [11]: 141 µM
Km [12]: 6030 µM
Km [13]: 724 µM
Km [14]: 1320 µM
